Like-named read-outs stand apart in the source and are kept apart here.
Tests used:
[1] = biological target: GST-fused galectin-1 protein (human) (UniProt P09382)
[2] = biological target: PNGase F-treated aflibercept (human); assay: BLI; BLItz; aflibercept, PNGase F-treated aflibercept, VEGFR1-Fc or VEGFR2-Fc immobilised on Protein A-coated biosensors; GST-galectin-1 as analyte at various concentrations; PBS; values of empty sensors subtracted
[3] = biological target: PNGase F-treated aflibercept (human); assay: as above; remark: listed apart in the source
Aflibercept (human) = assay: as above

GST-fused galectin-1 protein, sequence (P09382 whole entry, the tested form may be a part): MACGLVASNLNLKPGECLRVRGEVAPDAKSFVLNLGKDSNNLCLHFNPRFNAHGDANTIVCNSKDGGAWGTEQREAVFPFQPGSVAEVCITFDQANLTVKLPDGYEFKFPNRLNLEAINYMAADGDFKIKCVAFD
GST-fused galectin-1 protein (human), sequence (P09382 whole entry, the tested form may be a part): as above
Aflibercept (Fc fusion), sequence (chain): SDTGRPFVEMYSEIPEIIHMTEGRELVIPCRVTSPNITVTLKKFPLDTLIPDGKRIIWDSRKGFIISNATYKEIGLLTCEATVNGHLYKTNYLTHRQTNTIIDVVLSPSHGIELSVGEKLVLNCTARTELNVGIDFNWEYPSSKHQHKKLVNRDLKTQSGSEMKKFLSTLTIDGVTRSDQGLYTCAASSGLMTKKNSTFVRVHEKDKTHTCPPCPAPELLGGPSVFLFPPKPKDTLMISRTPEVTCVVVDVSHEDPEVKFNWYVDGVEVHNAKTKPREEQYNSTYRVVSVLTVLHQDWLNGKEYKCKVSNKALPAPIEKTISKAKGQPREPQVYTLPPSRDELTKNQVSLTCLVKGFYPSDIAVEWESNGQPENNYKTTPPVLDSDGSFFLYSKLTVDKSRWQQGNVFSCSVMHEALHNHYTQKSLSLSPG

| HRMEC proliferation (RealTime-Glo, relative to PBS) with 10 μg/ml galectin-1 for 48 h with 7.5 μg/ml aflibercept (2.77 without aflibercept) [1] | Kd [2] | Kd [3] | koff [3] | kon [3] | Kd (Aflibercept (human)) | koff (Aflibercept (human)) | kon (Aflibercept (human)) | Substance |
| --- | --- | --- | --- | --- | --- | --- | --- | --- |
| 0.96 fold change |  |  |  |  |  |  |  | Aflibercept (Fc fusion) |
|  | 869 nM | 868 nM | 0.00531 s⁻¹ | 6120 M⁻¹ s⁻¹ | 23.7 nM | 0.000371 s⁻¹ | 15700 M⁻¹ s⁻¹ | GST-fused galectin-1 protein (from UniProt P09382 1-135) (natural protein) |
